How the values were obtained:
mouse P2X7 (mouse) = biological target: T1, mouse P2X7 (mouse) (UniProt Q9Z1M0); test: cell-based or functional assay
T1 sequence: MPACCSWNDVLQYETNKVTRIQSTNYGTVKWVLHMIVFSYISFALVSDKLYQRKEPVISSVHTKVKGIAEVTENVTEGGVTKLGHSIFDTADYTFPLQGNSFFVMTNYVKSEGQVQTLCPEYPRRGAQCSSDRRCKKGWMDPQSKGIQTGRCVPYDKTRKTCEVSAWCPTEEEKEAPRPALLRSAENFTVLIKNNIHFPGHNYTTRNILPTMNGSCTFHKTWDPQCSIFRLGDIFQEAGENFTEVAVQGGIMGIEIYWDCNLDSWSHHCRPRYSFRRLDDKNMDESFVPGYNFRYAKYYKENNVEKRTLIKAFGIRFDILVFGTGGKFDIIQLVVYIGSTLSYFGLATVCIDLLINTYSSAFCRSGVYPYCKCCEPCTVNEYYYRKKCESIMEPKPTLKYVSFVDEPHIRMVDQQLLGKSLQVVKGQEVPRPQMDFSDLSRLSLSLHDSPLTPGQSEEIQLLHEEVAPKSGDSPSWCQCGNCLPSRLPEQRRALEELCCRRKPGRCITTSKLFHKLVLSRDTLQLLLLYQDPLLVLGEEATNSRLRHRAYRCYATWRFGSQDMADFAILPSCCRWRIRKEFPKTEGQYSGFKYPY

[1] = biological target: plasma-derived HBsAg particles (Biodesign) (hepatitis B virus); test: SPR (Biacore), periplasmic extract over immobilised plasma-derived HBsAg particles, 1:1 dissociation model

B1: 14D5-35GS-14D5 (VHH)
chain: EVQLVESGGGLVQAGGSLRLSCAASGSPISSYAMGWYRQAPGKPRELVARIYTGGTAWYEDSVKGRFTISRDNAQNTVYLQMNSLKSEDTAVYYCHGRVRYDYWGQGTQVTVSSGGGGSGGGGSGGGGSGGGGSGGGGSGGGGSGGGGSEVQLVESGGGLVQAGGSLRLSCAASGSPISSYAMGWYRQAPGKPRELVARIYTGGTAWYEDSVKGRFTISRDNAQNTVYLQMNSLKSEDTAVYYCHGRVRYDYWGQGTQVTVSS
Mouse P2X7 (mouse)
  EC50, enhancement of CD62L-ectodomain shedding at 1.5 µM NAD: 0.06 nM
  EC50, enhancement of CD62L-ectodomain shedding at 33 µM ATP: 0.1 nM
  increase in potency vs. monovalent 14D5 (ATP-induced shedding): 220 fold
  increase in potency vs. monovalent 14D5 (NAD-induced shedding): 40 fold

B2: 8G11-35GS-8G11 (VHH)
chain: EVQLVESGGGLVQAGGSLRLSCAASGNFFRVNTMAWYRQAPGKQRELVADITRGDRTNYADTVNGRFTISRDNVRNTVYLQMNGLRPEDTAAYYCYAVIELGVLEPRDYWGQGTQVTVSSGGGGSGGGGSGGGGSGGGGSGGGGSGGGGSGGGGSEVQLVESGGGLVQAGGSLRLSCAASGNFFRVNTMAWYRQAPGKQRELVADITRGDRTNYADTVNGRFTISRDNVRNTVYLQMNGLRPEDTAAYYCYAVIELGVLEPRDYWGQGTQVTVSS
Mouse P2X7 (mouse)
  IC50, CD62L shedding at 20 µM NAD: 0.52 nM
  IC50, CD62L shedding at 100 µM ATP: 0.2 nM
  potency increase vs. monovalent 8G11 (ATP): 84 fold
  potency increase vs. monovalent 8G11 (NAD): 146 fold

B3: HBSAGPMP2E12 (VHH)
VHH: EVQLVESGGGLVQAGGSLRLSCAASGRSISEYAMGWFRQAPGQEREFVASISTSGGSTTYADSVKGRFIISRDNAKNTVYLQMNSLKPEDTAVYYCARYNGWMYYAGTMGVHFGQGTQVTVSS
[1]
  koff: 0.0013 s⁻¹

B4: 13A7-35GS-13A7 (VHH)
chain: EVQLVESGGGLVQPGESLRLSCTASRFMLDYYDIGWFRQAPGKEREGVSCRFTNDGSTAYADSVKGRFTISRDIVKHTVYLQMNSLQPEDTAVYYCAAGPLTKRRQCVPGDFSMDFWGEGTLVTVSSGGGGSGGGGSGGGGSGGGGSGGGGSGGGGSGGGGSEVQLVESGGGLVQPGESLRLSCTASRFMLDYYDIGWFRQAPGKEREGVSCRFTNDGSTAYADSVKGRFTISRDIVKHTVYLQMNSLQPEDTAVYYCAAGPLTKRRQCVPGDFSMDFWGEGTLVTVSS
Mouse P2X7 (mouse)
  IC50, CD62L shedding at 20 µM NAD: 0.3 nM
  IC50, CD62L shedding at 100 µM ATP: 0.1 nM
  potency increase vs. monovalent 13A7 (ATP): 9 fold
  potency increase vs. monovalent 13A7 (NAD): 23 fold

B5: HBSAGPMP2E7 (VHH)
VHH: EVQLVESGGGLLQAGGSLRLSCAASERAFIIYGKAWFRQAPGKEREFVAGINWNGGDLHYADSVKGRFTISRDNTNNVVYLQMNSLKSEDTAVYYCAVRRGTAYETDVSSYEWGTQVTVSS
[1]
  koff: 0.00088 s⁻¹

— patent US20160264664A1
